Source: PMC4250932

Test system: NC(=O)C1=CN([C@@H]2O[C@H](COP(=O)(O)OP(=O)(O)OC[C@H]3O[C@@H](n4cnc5c(N)ncnc54)[C@H](OP(=O)(O)O)[C@@H]3O)[C@@H](O)[C@H]2O)C=CC1
Assay: purified protein
Details: varied: cofactor

“RmlD (dTDP-6-deoxy-L-lyxo-4-hexulose reductase) (Mycobacterium tuberculosis H37Rv)” was tested, and the Km was 12.5 µM.
